Source: patent US20180044416A1

Target: human FcRn with human beta2M on MDCK II clone 15 cells (human) (UniProt P55899)
Test: cell-based or functional assay

| Blockade of IgG recycling, maximal inhibition | Blockade of IgG intracellular uptake EC50 | Blockade of IgG recycling EC50 | Substance |
| --- | --- | --- | --- |
| 45% |  |  | IgG1 IgM tail-piece, H310L (Fc fusion) |
|  | 0.54 mg/L | 0.35 mg/L | IgG1 IgM tail-piece, T307A (Fc fusion) |
|  | 0.12 mg/L | 0.073 mg/L | IgG1 IgM tail-piece, V308F (Fc fusion) |
|  | 0.34 mg/L | 0.55 mg/L | IgG1 IgM tail-piece, V308P (Fc fusion) |
|  | 0.5 mg/L |  | IgG4 IgM tail-piece, T307A (Fc fusion) |
|  | 0.42 mg/L | 0.56 mg/L | IgG4 IgM tail-piece, V308F (Fc fusion) |
|  | 0.51 mg/L | 0.42 mg/L | IgG4 IgM tail-piece, V308P (Fc fusion) |
